Changes are numbered by the printed parent chain.
T1: Eimeria maxima MIC2 (Eimeria maxima)
T1 construct: Recombinant antigen coated on ELISA wells; also called EmMIC2
T1 chain: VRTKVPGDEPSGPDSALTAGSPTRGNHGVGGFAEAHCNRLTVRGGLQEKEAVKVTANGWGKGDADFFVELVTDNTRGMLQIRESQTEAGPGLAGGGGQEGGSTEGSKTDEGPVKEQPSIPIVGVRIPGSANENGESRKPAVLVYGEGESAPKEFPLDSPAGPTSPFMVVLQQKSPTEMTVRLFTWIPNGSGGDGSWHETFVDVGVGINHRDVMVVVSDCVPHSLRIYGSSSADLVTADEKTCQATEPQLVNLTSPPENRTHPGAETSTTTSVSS

T2: Eimeria tenella MIC2 (Eimeria tenella)
T2 construct: Recombinant antigen coated on ELISA wells; also called EtMIC2
T2 chain: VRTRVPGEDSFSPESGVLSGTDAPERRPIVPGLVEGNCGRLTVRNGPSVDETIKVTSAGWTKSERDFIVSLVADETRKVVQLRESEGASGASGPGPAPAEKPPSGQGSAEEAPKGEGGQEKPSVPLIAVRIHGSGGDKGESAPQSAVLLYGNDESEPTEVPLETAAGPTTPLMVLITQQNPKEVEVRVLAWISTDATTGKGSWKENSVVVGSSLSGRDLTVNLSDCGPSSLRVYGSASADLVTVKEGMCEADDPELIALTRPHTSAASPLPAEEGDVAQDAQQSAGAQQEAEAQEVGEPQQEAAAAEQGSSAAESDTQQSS

B1: NBX0710 (VHH)
VHH: QVQLQESGGGLVQAGGSLRLSCAASGSIFSINAMGWYRQAPGKQRELVAGITSGGSTNYADSVKGRFTISRDNAKNTVYLQMNSLKPEDTAVYYCAADYVGLGDDAFYVPYWGQGTQVTVSA
B2: NBX0726 (VHH)
VHH: QVQLQQSGGGLVQAGGSVRLSCTANGLTFGNYAMAWFRRTPGKERAFVGGMSASGAGTYYLDSVKGRFTISRDTAKNTVYLEMNSLKAEDTAVYYCAANSIYPGRRWASYDYWGQGTQVTVSS
B3: NBX0727 (VHH)
VHH: QVQLQQSGGGLVQAGGSVRLSCAASGLTLGNYALAWFRRTPGKEREFVAGMSGSGAGTYYLDSVNGRFTISRDNAKNTLYLQMNSLKAEDTAVYYCAANSIYPGRRWASYDYWGQGTQVTVSS
B4: NBX17024 (VHH)
VHH: QVQLQESGPGLVKPSQTLSLTCTVSGGSITTSYSTWSWIRQPPGKGLEWMGVIADDGSAEYSPSLKSRTSISLDTSKNQFSLQLSSVTPEDTAVYYCARRGGAWGSNWWAYHMDDWGKGTLVTVSS
B5: NBX17020 (VHH)
VHH: QVQLQQSGGGLVQAGGSLRLSCAGSGRPFGSYVMGWYRQAPGEQREMVARMTSAGSGGVADYGESVKGRFAISRDYAKNMVFLQMNSLKPEDTAVYYCWSALGYWGQGTQVTVSS
B6: NBX17019 (VHH)
VHH: QVQLQESGGGLVQAGGSLRLSCTGPGSTFSSYAVGWYRQAPGGNREWVASISSSGEITRYADSVTGRFTISRDNAKNTVDLQMNSLRPEDTAVYYCAIGTMARGKGTLVTVSS
B7: NBX0751 (VHH)
VHH: QVQLQESGGGLVQPGGSLRLSCAVSGTIFSITPMGWYRQAPGKQRELVASISGGGSTNYTDPVKGRFTISRDKARNTVYLQMNNLKPEDTAVYYCNAASLAIVRGINNYWGQGTQVTVSS
B8: NBX0749 (VHH)
VHH: QVQLQESGGGLVQAGGSLRLSCATSGSIFSRDTMAWYRQVPGEQRELVAYITNFGGTNHADSVKGRFTISRDNAKNTVYLQMNSLKPEDTAVYYCAAGLLSLRTHTWEYWGQGTQVTVSS
B9: NBX0748 (VHH)
VHH: B8 VHH with A23V, T24A, T104S, Y109L
B10: NBX0728 (VHH)
VHH: B8 VHH with T24A, G26A, I51V, G98D, L100I

Experiments:
Eimeria maxima MIC2 = biological target: T1, Eimeria maxima MIC2; assay: phage ELISA, antigen-coated wells;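 also: antigen dissolved in PBS and coated onto wells, with negative-control wells holding PBS alone as the reference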
From the text: (§1) Black bars show binding to wells coated with the antigen specified in Tables 1 and 2 dissolved in phosphate-buffered saline (PBS). Grey bars are negative controls that show binding to wells coated with PBS only.

Eimeria tenella MIC2 = biological target: T2, Eimeria tenella MIC2; assay: phage ELISA, antigen-coated wells;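 also: antigen dissolved in PBS and coated onto wells, with negative-control wells holding PBS alone as the reference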
From the text: as §1

[1] = biological target: T3, GST fusion of the EmAMA1-binding peptide of EmRON2 (Eimeria maxima, UniProt P08515 1-218 = GST); assay: phage ELISA, wells coated with GST-RON2 peptide
T3 construct: Expressed in E. coli, purified as the other antigens but without TEV cleavage, so a His tag and TEV site probably remain; also called GST-RON2 peptide
T3 sequence (P08515 1-218, tags or fused parts left off): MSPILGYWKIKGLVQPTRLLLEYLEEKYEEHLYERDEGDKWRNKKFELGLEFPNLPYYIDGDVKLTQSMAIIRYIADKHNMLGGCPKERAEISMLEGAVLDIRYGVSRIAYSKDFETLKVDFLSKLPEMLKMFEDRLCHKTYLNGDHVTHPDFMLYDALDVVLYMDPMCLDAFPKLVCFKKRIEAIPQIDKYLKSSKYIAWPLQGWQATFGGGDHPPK

Binder | binding relative to PBS-coated wells (Eimeria tenella MIC2) [times] | binding relative to GST-coated wells [1] [times] | binding relative to PBS-coated wells [1] [times] | also measured
B1 |  |  |  | binding relative to PBS-coated wells (Eimeria maxima MIC2): ≥ 4 times
B2 | ≥ 4 |  |  | 
B3 | ≥ 4 |  |  | 
B4 |  | ≥ 3 | ≥ 4 | 
B5 |  | ≥ 3 | ≥ 4 | 
B6 |  | ≥ 3 | ≥ 4 | 
B7 |  |  |  | binding relative to PBS-coated wells (Eimeria maxima MIC2): ≥ 4 times
B8 | ≥ 4 |  |  | 
B9 | ≥ 4 |  |  | 
B10 | ≥ 4 |  |  | 

Reference: patent US20220242941A1 (NOVOBIND LIVESTOCK THERAPEUTICS, published 2022)
